# B1: Spr0693_(59–324) T197M/I317M, selenomethionine-labelled (domain or fragment, Streptococcus pneumoniae R6, UniProt Q8DQF9 59-324, looked up)
# chain: SVLLSGTVTAKNEQYVYFDASKGDLDEILVSVGDKVSEGQALVKYSSSEAQAAYDSASRAVARADRHINELNQARNEAASAPAPQLPAPVGGEDATVQSPTPVAGNSVASIDAQLGDARDARADAAAQLSKAQSQLDAMTVLSTLEGTVVEVNSNVSKSPTGASQVMVHIVSNENLQVKGELSEYNLANLSVGQEVSFTSKVYPDKKWTGKLSYISDYPKNNGEAASPAAGNNTGSKYPYTIDVTGEVGDLKQGFSVNMEVKSKTK
# modifications: selenomethionine instead of methionine
# notes: Spr0693, Streptococcus pneumoniae R6, residues Ser59–Lys324 (without the TM and the membrane-proximal domain); Plasmid built on the full-length spr0693 plasmid (C-terminal tag) and purified on Ni-NTA; The structure was solved from a Se-Met crystal of the T197M/I317M double mutant; residues Pro142–Gly163 are not traced; also called truncated Spr0693 (Ser59–Lys324); TM&MP-truncated Spr0693; source: …
# Target: the molecule itself
# Test: crystal structure; Se-Met Spr0693_(59–324) T197M/I317M, hanging drop at 12 °C, sodium acetate pH 4.5; SAD, 3.0 Å; three molecules in the asymmetric unit
protein,measurement,value
B1,stoichiometry N,6

# Source: PMC5768738, “Structure of a MacAB-like efflux pump from Streptococcus pneumoniae” (Nature Communications, 2018)
